Data from patent US20230203197.

Target: alpha 1 antitrypsin (α1AT), P01009
Sequence (P01009 whole entry, looked up): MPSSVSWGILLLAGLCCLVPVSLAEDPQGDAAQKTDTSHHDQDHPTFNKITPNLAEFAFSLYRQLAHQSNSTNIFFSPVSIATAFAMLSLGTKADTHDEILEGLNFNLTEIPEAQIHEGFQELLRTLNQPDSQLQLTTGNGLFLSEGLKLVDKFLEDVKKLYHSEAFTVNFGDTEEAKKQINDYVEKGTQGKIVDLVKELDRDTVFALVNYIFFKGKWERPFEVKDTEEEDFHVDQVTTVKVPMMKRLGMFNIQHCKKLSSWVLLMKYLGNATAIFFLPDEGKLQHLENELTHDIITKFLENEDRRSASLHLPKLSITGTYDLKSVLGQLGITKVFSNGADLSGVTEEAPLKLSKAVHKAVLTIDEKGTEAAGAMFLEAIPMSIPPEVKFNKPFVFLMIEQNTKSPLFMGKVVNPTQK

B1: neutrophil proteinase 3 (PR3), purified native human PR3 (protein)
chain: IVGGHEAQPHSRPYMASLQMRGNPGSHFCGGTLIHPSFVLTAAHCLRDIPQRLVNVVLGAHNVRTQEPTQQHFSVAQVFLNNYDAENKLNDVLLIQLSSPANLSASVATVQLPQQDQPVPHGTQCLAMGWGRVGAHDPPAQVLQELNVTVVTFFCRPHNICTFVPRRKAGICFGDSGGPLICDGIIQGIDSFVIWGCATRLFPDFFTRVALYVDWIRSTLR
**Q.** B1 was tested. Which “enzymatic activity of PR3 (fluorescent substrate Abz-VADnVADYQ-YNO2)” value did it give?
**A.** Its value is “the addition of alpha 1 anti-trypsin (1AT) which is a natural PR3 inhibitor did not induce any degradation of the PR3 substrate”.
